# Measured values taken from paper PMC5959800 (The international journal of biochemistry & cell biology, 2018).
# T1: Histidine-tagged AIMP1 (immobilised in SPR) (UniProt Q12904 1-312)
# T1 sequence (looked up): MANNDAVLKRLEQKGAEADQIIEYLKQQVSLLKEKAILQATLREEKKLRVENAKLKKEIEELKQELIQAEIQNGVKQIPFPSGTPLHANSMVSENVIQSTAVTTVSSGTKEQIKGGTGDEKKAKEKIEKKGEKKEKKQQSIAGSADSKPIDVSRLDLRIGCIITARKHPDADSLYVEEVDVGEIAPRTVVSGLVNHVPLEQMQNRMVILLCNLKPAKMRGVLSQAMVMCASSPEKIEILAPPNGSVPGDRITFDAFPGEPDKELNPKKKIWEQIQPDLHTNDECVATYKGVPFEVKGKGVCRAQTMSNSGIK
# B1: His-tagged AIMP3 (natural protein, UniProt O43324 1-174, looked up)
# chain: MAAAAELSLLEKSLGLSKGNKYSAQGERQIPVLQTNNGPSLTGLTTIAAHLVKQANKEYLLGSTAEEKAIVQQWLEYRVTQVDGHSSKNDIHTLLKDLNSYLEDKVYLTGYNFTLADILLYYGLHRFIVDLTVQEKEKYLNVSRWFCHIQHYPGIRQHLSSVVFIKNRLYTNSH
# Target: T1, Histidine-tagged AIMP1 (immobilised in …)
# Experiment: SPR
binder,measurement,value
B1,Kd,25.3 nM
